The source of these data is US20070134249A1 (GENITOPE, published 2007).

Test in all cases: ELISA
For one experiment, the target named is T1, 529.
T1 construct: H3-48 K4-1; also called PIN529
On the set-up: key: 0 = <0.5 OD, 1 = 0.5-1.0 OD, 4 = 1-4 OD. From the text: (§1) Before specificity screening, all of the clonal immunogen-positive hybridoma supernatants were re-screened on the immunogen, a non-family member Id protein, and KLH, if animals were immunized with Id protein that has been conjugated KLH. As described above, this screen identifies HC-specific clones but not mAbs against the light chain constant region. Clones identified positive to the immunogen and KLH were […]. Those found positive to the immunogen but not to the non-family member Id protein or KLH were tittered on the immunogen. In addition to normalizing for different binding affinities and concentrations, each hybridoma supernatant was titered on the fully human form of the Id protein used as the immunogen(s) for the V regions. The titer or dilution resulting in an ELISA absorbance of 2.5 to 3 OD after 30 min. incubation time was then used. Hybridoma specificity was determined by screening against available Id proteins expressing the same HV and KV or LV as well as different HV, KV and LV. The final ELISA results are expressed as follows: 0 (<0.5 OD), 1 (0.5-1.0 OD), or 4 (1-4 OD). Positive hybridoma supernatants are categorized according to specificity: anti-Id, anti-constant region (HC, KC or LC), or V region (HV, KV, LV family or family member).
(§2) In general, the fully human Id protein or proteins containing the immunogen V regions were coated onto 96-well ELISA plates at 2.5-5 ug/mL in carbonate buffer pH 9.6 and incubated at 4° C. for up to 14 days. On the day of the ELISA, plates were brought to RT and blocked with Tris-Tween-20, pH 7.6 for 15-60 min. at RT. Following a NaCl and Triton X-100 wash, diluted hybridoma cell culture supernatants were incubated overnight at 4° C. Hybridoma supernatant dilutions ranged from 1:2 to 1:25 and were prepared in PBS with 5% BSA. Plates were washed and incubated with HRP-conjugated goat anti-mouse IgG-specific detecting antibody. A chromogenic substrate (TMB) was used to measure the amount of mouse antibody bound to each well. The reaction was stopped at or before 30 minutes with IN H2SO4 and plates were read immediately. Absorbency readings at 450 nm ranging between 0-4 OD and using Molecular Devices plate reader and SOFTMAX PRO software.

A further experiment has as its target T2, 763.
T2 construct: H4-59 K4-1; also called PIN763
On the set-up: key: 0 = <0.5 OD, 1 = 0.5-1.0 OD, 4 = 1-4 OD.
Source text: as §1, §2

In another experiment the target is T3, 659.
T3 construct: H3-21 K4-1; also called PIN659
On the set-up: key: 0 = <0.5 OD, 1 = 0.5-1.0 OD, 4 = 1-4 OD.
Source text: as §1, §2

Another experiment addresses T4, 631.
T4 construct: H4-34 K4-1; also called PIN631
On the set-up: key: 0 = <0.5 OD, 1 = 0.5-1.0 OD, 4 = 1-4 OD.
Source text: as §1, §2

In the next experiment the target is T5, 950.
T5 construct: H4-59 K4-1; also called PIN950
More on the design: key: 0 = <0.5 OD, 1 = 0.5-1.0 OD, 4 = 1-4 OD.
Source text: as §1, §2

The target of the next experiment is T6, 913.
T6 construct: fully human Id protein; also called PIN913
T6 sequence (heavy, as listed by the source): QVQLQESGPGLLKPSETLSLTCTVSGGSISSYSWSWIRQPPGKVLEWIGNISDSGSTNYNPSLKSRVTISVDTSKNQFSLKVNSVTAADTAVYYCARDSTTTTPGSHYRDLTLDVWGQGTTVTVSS
More on the design: key: 0 = <0.5 OD, 1 = 0.5-1.0 OD, 4 = 1-4 OD.
Source text: as §1, §2

For a further experiment, the target named is T7, 839.
T7 construct: H3-23 K4-1; also called PIN839
More on the design: key: 0 = <0.5 OD, 1 = 0.5-1.0 OD, 4 = 1-4 OD.
Source text: as §1, §2

The target of the next experiment is T8, 902.
T8 construct: H3-7 K3-20; also called PIN902
More on the design: key: 0 = <0.5 OD, 1 = 0.5-1.0 OD, 4 = 1-4 OD.
Source text: as §1, §2

The target of experiment [1] is T9, PIN185 fully human Id protein (human).
T9 construct: Patient-derived idiotype immunoglobulin used as control antigen in SPR
On the set-up: key: 0 = <0.5 OD, 1 = 0.5-1.0 OD, 4 = 1-4 OD.
Source text: as §1, §2

The target of the next experiment is T10, 786.
T10 construct: H3-7 K3-15; also called PIN786
More on the design: key: 0 = <0.5 OD, 1 = 0.5-1.0 OD, 4 = 1-4 OD.
Source text: as §1, §2

The next experiment deals with T11, 844.
T11 construct: H3-7 K4-1; also called PIN844
On the set-up: key: 0 = <0.5 OD, 1 = 0.5-1.0 OD, 4 = 1-4 OD.
Source text: as §1, §2

In another experiment the target is T12, 102.
T12 construct: H1-18 L1-44; also called PIN102
More on the design: key to grade: 0 = <0.5 OD, 1 = 0.5-1.0 OD, 4 = 1-4 OD.
Source text: as §1, §2

Another experiment has as its target T13, 710.
T13 construct: H1-8 L2-8; also called PIN710
On the set-up: key to grade: 0 = <0.5 OD, 1 = 0.5-1.0 OD, 4 = 1-4 OD.
Source text: as §1, §2

Another experiment has as its target T14, 1167.
T14 construct: H3-23 L2-14; also called PIN1167
On the set-up: key to grade: 0 = <0.5 OD, 1 = 0.5-1.0 OD, 4 = 1-4 OD.
Source text: as §1, §2

The target in another experiment is T15, 116.
T15 construct: fully human Id protein; also called PIN116
T15 sequence (VH, as listed by the source, chain 1 of 2): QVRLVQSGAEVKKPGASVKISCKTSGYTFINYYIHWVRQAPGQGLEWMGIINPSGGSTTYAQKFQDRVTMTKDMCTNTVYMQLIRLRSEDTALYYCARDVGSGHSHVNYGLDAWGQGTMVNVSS
T15 sequence (V domain, as listed by the source, chain 2 of 2): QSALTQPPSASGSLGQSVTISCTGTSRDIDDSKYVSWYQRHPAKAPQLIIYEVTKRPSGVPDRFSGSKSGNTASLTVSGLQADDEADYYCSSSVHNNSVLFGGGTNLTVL
On the set-up: key to grade: 0 = <0.5 OD, 1 = 0.5-1.0 OD, 4 = 1-4 OD.
Source text: as §1, §2

The next experiment deals with T16, 1056.
T16 construct: H3-48 L2-14; also called PIN1056
More on the design: key to grade: 0 = <0.5 OD, 1 = 0.5-1.0 OD, 4 = 1-4 OD.
Source text: as §1, §2

The next experiment concerns the target T17, 625.
T17 construct: H4-61 L2-8; also called PIN625
More on the design: key to grade: 0 = <0.5 OD, 1 = 0.5-1.0 OD, 4 = 1-4 OD.
Source text: as §1, §2

In a further experiment the target is T18, 231.
T18 construct: H3-48 L2-14; also called PIN231
More on the design: key to grade: 0 = <0.5 OD, 1 = 0.5-1.0 OD, 4 = 1-4 OD.
Source text: as §1, §2

The target of the next experiment is T19, 762.
T19 construct: H3-7 L3-10; also called PIN762
On the set-up: key to grade: 0 = <0.5 OD, 1 = 0.5-1.0 OD, 4 = 1-4 OD.
Source text: as §1, §2

The next experiment has as its target T20, 551.
T20 construct: H3-23 L1-40; also called PIN551
More on the design: key to grade: 0 = <0.5 OD, 1 = 0.5-1.0 OD, 4 = 1-4 OD.
Source text: as §1, §2

B1: mAb clone 12C3 (antibody, V domains shown)
VH: EVKLVESGGGLVQPGGSLSLSCAASGFTYTDYYMNWVRQPPGKALEWLALIRNKANGYTTEYSASLKGRFTISRDNSQSILYLQMNALRAEDSATYYCVRENINYYFDYWGQGTTLTVSS
VL: DIVLTQSPASLAVSLGQRATISCRASESVEYFGASLMQWYQQKSGQPPKLLIRAATNVESGVPARFSGSGSGTDFSLNIHPVEEDDIAMYFCQQSRKVPWTFGGGTKLEIKR
notes: Mouse hybridoma mAb, fusions 20/21 (PIN628 V regions)
On to B1, for which the grade in the experiment with 529, in the experiment with 763, in the experiment with 659, with 631, in the experiment with 950 and with 913 was 4 in each case. Further, the grade (in the experiment with 839; with 902; in [1]; in the experiment with 786; with 844) was 4 throughout.

B2: mAb clone 4H11 (antibody, V domains shown)
VH: EVKLVESGGGLVKPGGSLKLSCAASGFAFSNYDMSWVRQTPEKRLEWVATIRSDDSYTYYPDSVKGRFTISRDNARNTLYLQMSSLRSEDTAFYYCARREGNYAMDYWGQGTSVTVSS
VL: DIQMTQSPASLSVSVGETVTITCRASENIYSYLAWYQQKKGKSPQLLVYAATNLGDGVPTRFSGSGSGTQYSLKINSLQSEDFGSYYCQHFWGNPLTFGAGTKLELKR
notes: Mouse hybridoma mAb
For B2, the grade with 102, in the experiment with 710, with 1167, with 1056, with 625 and with 231 was 4 in each case. The grade with 762 and with 551 was 4 in each case. The binding result in the experiment with 116 is “no binding”.
